Experimental data from paper PMC7905918, “20E-mediated regulation of BmKr-h1 by BmKRP promotes oocyte maturation”.

T1: BmKRP (Bombyx mori, UniProt A0A8R1WHU4 1-518)
T1 sequence: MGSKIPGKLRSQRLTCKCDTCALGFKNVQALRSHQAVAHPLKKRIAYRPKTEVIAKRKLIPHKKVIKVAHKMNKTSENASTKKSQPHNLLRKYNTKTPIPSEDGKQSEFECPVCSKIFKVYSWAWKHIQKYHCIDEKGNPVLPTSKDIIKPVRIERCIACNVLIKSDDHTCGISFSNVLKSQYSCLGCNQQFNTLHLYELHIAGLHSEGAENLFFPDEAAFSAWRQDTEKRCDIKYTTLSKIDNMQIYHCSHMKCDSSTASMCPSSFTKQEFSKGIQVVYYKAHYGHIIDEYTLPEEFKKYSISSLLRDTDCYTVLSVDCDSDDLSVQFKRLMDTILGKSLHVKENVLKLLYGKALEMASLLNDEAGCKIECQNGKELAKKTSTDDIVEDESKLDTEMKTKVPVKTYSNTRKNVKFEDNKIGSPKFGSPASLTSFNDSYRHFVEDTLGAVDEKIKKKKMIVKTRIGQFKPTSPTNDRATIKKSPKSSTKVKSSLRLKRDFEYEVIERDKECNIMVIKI


Experiments:
Settings in all cases: protein: ivt; label: 5' biotin; blunt
[1] = biological target: T1, BmKRP; assay: EMSA; competed by 50-fold unlabeled probe; EMSA: 1x binding buffer (LightShift kit), 2.5% glycerol, 0.05% NP-40, 50 mM KCl, 5 mM MgCl2, 4 mM EDTA, 1 ug poly dI-dC, 20 fmol probe, room temperature 20 min; pull-down: 10 mM HEPES pH 7.6, 100 mM K-glutamate, 80 mM KCl, 10 mM Mg acetate, 4 C
[2] = biological target: T1, BmKRP; assay: EMSA; Discussion calls it weaker (citing Fig. 3f); EMSA: 1x binding buffer (LightShift kit), 2.5% glycerol, 0.05% NP-40, 50 mM KCl, 5 mM MgCl2, 4 mM EDTA, 1 ug poly dI-dC, 20 fmol probe, room temperature 20 min; pull-down: 10 mM HEPES pH 7.6, 100 mM K-glutamate, 80 mM KCl, 10 mM Mg acetate, 4 C
[3] = biological target: T1, BmKRP; assay: EMSA; EMSA: 1x binding buffer (LightShift kit), 2.5% glycerol, 0.05% NP-40, 50 mM KCl, 5 mM MgCl2, 4 mM EDTA, 1 ug poly dI-dC, 20 fmol probe, room temperature 20 min; pull-down: 10 mM HEPES pH 7.6, 100 mM K-glutamate, 80 mM KCl, 10 mM Mg acetate, 4 C

Binder	binding result [2]	binding result [3]	further results
BmKr-h1 20E CRE -248~-217 WT probe (dsDNA) DNA 1: TTATTAAAACATCCGAAAACGCAATAATCATT DNA 2: AATGATTATTGCGTTTTCGGATGTTTTAATAA			binding result [1]: binds
-248~-217 mutant probe 7 (right flank mutated) (dsDNA) DNA 1: TTATTAAAACATCCGAAAACGACCGCCGACGG DNA 2: CCGTCGGCGGTCGTTTTCGGATGTTTTAATAA	binds		
-248~-217 mutant probe 5 (both flanks mutated) (dsDNA) DNA 1: GGCGGCCCACATCCGAAAACGACCGCCGACGG DNA 2: CCGTCGGCGGTCGTTTTCGGATGTGGGCCGCC		no binding	
-248~-217 mutant probe 4 (central … region mutated) (dsDNA) DNA 1: TTATTAACCACGAATCCCCATAAATAATCATT DNA 2: AATGATTATTTATGGGGATTCGTGGTTAATAA		binds	
-248~-217 mutant probe 6 (left flank mutated) (dsDNA) DNA 1: GGCGGCCCACATCCGAAAACGCAATAATCATT DNA 2: AATGATTATTGCGTTTTCGGATGTGGGCCGCC	binds		
